The target of data set [1] is T1, Ca-/calmodulin-dependent PK substrate peptide KKALRRQETVDAL
T1 chain: KKALRRQETVDAL

For data set [2], the target named is T2, Ca-/calmodulin-dependent PK substrate peptide PLARTLSVAGLPGK
T2 chain: PLARTLSVAGLPGK

For data set [3], the target named is T3, S6 kinase substrate peptide LSSLRASTSKSGGQK
T3 chain: LSSLRASTSKSGGQK

The target of data set [4] is T4, abl tyrosine kinase substrate peptide EAIYAAPFAKKK
T4 chain: EAIYAAPFAKKK

Data set [5] deals with T5, c-src tyrosine kinase substrate peptide YIYGSFK.
T5 chain: YIYGSFK

The target of data set [6] is T6, cAMP-dependent protein kinase substrate peptide LRRASLG.
T6 chain: LRRASLG

Data set [7] deals with T7, cGMP-dependent protein kinase substrate peptide RKISASEFDRPLR
T7 chain: RKISASEFDRPLR

For data set [8], the target named is T8, casein kinase I substrate peptide RRKDLHDDEEDEAMSITA
T8 chain: RRKDLHDDEEDEAMSITA

Data set [9] deals with T9, casein kinase II substrate peptide RRRDDDSDDD
T9 chain: RRRDDDSDDD

Data set [10] deals with T10, cdc2-kinase substrate peptide Ac-SPGRRRRK
T10 chain: SPGRRRRK

The target of data set [11] is T11, csk tyrosine kinase substrate peptide KKKKEEIYFFF
T11 chain: KKKKEEIYFFF

Data set [12] concerns the target T12, insulin receptor tyrosine kinase substrate peptide KKKLPATGDYMNMSPVGD
T12 chain: KKKLPATGDYMNMSPVGD

The target in data set [13] is T13, myosin light chain kinase substrate peptide KKRPQRATSNVFS
T13 chain: KKRPQRATSNVFS

Data set [14] deals with T14, p34 cdc-kinase substrate peptide PKTPKKAKKL
T14 chain: PKTPKKAKKL

For data set [15], the target named is T15, p42/p44 MAP kinase substrate peptide APRTPGGRR
T15 chain: APRTPGGRR

Data set [16] has as its target T16, p42/p44 MAP kinase substrate peptide EAAEAEPAEPSSPAAEAEGA
T16 chain: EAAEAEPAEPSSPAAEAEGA

Data set [17] concerns the target T17, p42/p44 MAP kinase substrate peptide LMECRNSPVAKT
T17 chain: LMECRNSPVAKT

The target in data set [18] is T18, protein kinase C substrate peptide KKRFSFKKSFKLSGFSFK
T18 chain: KKRFSFKKSFKLSGFSFK

The target in data set [19] is T19, protein kinase C substrate peptide QKRPSQRSK
T19 chain: QKRPSQRSK

The target in data set [20] is T20, raf-1 kinase substrate peptide SGQLIDSMANSFVGTRS
T20 chain: SGQLIDSMANSFVGTRS

B1: Murine Lymph node Stromal cell Kinase 1 (MLSK-1) (protein)
chain: MESVALLQRPSQAPSASALASESARPLADGLIKSPKPLMKKQAVKRHHHKHNLRHRYEFLETLGKGTYGKVKKARESSGRLVAIKSIRKDKIKDEQDLLHIRREIEIMSSLNHPHIIAIHEVFENSSKIVIVMEYASRGDLYDYISERPRLSERDARHFFRQIVSALHYCHQNGIVHRDLKLENILLDANGNIKIADFGLSNLYHKGKFLQTFCGSPLYASPEIVNGKPYVGPEVDSWSLGVLLYILVHGTMPFDGQDHKTLVKQISNGAYREPPKPSDACGLIRWLLMVNPTRRATLEDVASHWWVNWGYTTGVGEQEALREGGHPSGDFGRASMADWLRRSSRPLLENGAKVCSFFKQHVPGGGSTVPGLERQHSLKKSRKENDMAQNLQGDPAEDTSSRPGKSSLKLPKGILKKKSSTSSGEVQEDPQELRPVPDTPGQPVPAVSLLPRKGILKKSRQRESGYYSSPEPSESGELLDASDVFVSGDPVEQKSPQASGLLLHRKGILKLNGKFSRTALEGTTPSTFGSLDQLASSHPAARPSRPSGAVSEDSILSSESFDQLDLPERLPETPLRGCVSVDNLRGLEQPPSEGLKRWWQESLGDSCFSLTDCQEVTAAYRQALGICSKLS
Regarding B1, the Phosphorylation by MLSK-1 (% of max.) in data set [1] was 20.9 % of max; in data set [2], 10.3 % of max; in data set [3], 66.6 % of max; in data set [4] it was 69.3 % of max; in [5] it was 66.6 % of max; in [6] it was 65.9 % of max. In addition, the Phosphorylation by MLSK-1 (% of max.) in data set [7] was 62.2 % of max; in [8], 14.1 % of max; in data set [9], 17.6 % of max; in [10], 94.8 % of max; in data set [11], 82.1 % of max; in data set [12], 33.7 % of max. For the same protein, the Phosphorylation by MLSK-1 (% of max.) in data set [13] was 72 % of max; in data set [14], 82 % of max; in [15], 88.6 % of max; in data set [16], 0 % of max; in [17], 3.8 % of max; in data set [18] it was 100 % of max. In addition, the values for the Phosphorylation by MLSK-1 (% of max.) in [19] and in data set [20] were 75 % of max and 43.1 % of max, respectively.

The values above are taken from patent US20030162277.
